Laboratory results reported in the Human Domainome abundance scans (Beltran et al. 2025).

B1: Histone-lysine N-methyltransferase SETD2, residues 2382 to 2430; numbered along this chain, Q9BYW2 (parent)
chain: SPPKPKTIVLPPNWKTARDPEGKIYYYHVITRQTQWDPPTWESPGDDAS

Variants of: B1
Experiment: abundance fitness (aPCA) (normalised: wild type 0, dead -1); higher = more abundant; growth selection in yeast, the domain comes from the species named
Conditions: Homo sapiens

Abundance fitness: each site, then its substitutions
E42: F 0.124; S 0.011; C -0.303; T -0.341; R -0.184; G -0.053; M -0.457; P 0.087; V -0.141; Q -0.291; A -0.148; K -0.074
G45: W 0.026; I 0.125; K 0.006; C -0.002; P 0.233; A 0.087; V -0.177; Q -0.313; H -0.73; D -0.061; E 0.02; F 0.019; T -0.141; S 0.025; R 0.035; M -0.082; L 0.076; Y 0.049
D37: Y -0.314; R -0.252; Q -0.235; K -0.061; I 0.005; W -0.255; F -0.68; V 0.013; E 0.049; L -0.159; A -0.049; N -0.298; C -0.07; P -0.48; T 0.117; M -0.184
D47: T -0.032; N -0.241; C -0.206; P -0.2; S 0.037; V -0.063; G -0.002; F -0.443; R -0.146; I -0.337; W -0.288; Q 0.257; M -0.226; H -0.028; K -0.16; Y -0.023; L -0.107; A -0.051; E 0.035
P39: T -0.98; M -0.908; G -1.04; Q -0.659; C -0.812; N -0.391; L -0.892; R -0.96; H -0.748; S -0.719; E -1; V -0.894; W -0.987; A -0.918; I -0.835
P44: C -0.448; K -0.128; W -0.283; D -0.108
